According to patent US20120058906A1 (published 2012):

Key:
[1] = target: T1, rHuman ErbB2/Fc Chimera, CF (R&D Systems Cat#1129-ER) (human, UniProt P04626 23-652); assay: ECL (MSD Multi-Spot) binding, antigen spotted on plate; Fab 500 nM;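 also: blank spot per well as comparator with Hit at signal to blank ratio of 4 or more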
T1 construct: Bought Fc chimera; also called human epidermal growth factor 2 receptor; HER2/neu; Fc part of the bought chimera not given

[2] = target: T2, rHuman EGF R/Fc Chimera, CF (R&D Systems Cat#344-ER) (human, UniProt P00533 25-645); assay: as above
T2 construct: Bought Fc chimera; also called epidermal growth factor receptor; Fc part of the bought chimera not given

[3] = target: T3, Recombinant Human DLL4 (R&D Systems Cat#1506-D4/CF) (human, UniProt Q9NR61 27-524); assay: as above
T3 construct: Bought recombinant protein; also called delta-like protein 4

[4] = target: T4, rHuman HGF R/c-MET/Fc Chimera, CF (R&D Systems Cat#358-MT/CF) (human, UniProt P08581 25-932); assay: as above
T4 construct: Bought Fc chimera; also called HGF R/Fc; hepatocyte growth factor receptor; Fc part of the bought chimera not given

[5] = target: T5, rHuman IGF-1 sR, CF (R&D Systems Cat#391-GR) (human, UniProt P08069 31-932); assay: as above
T5 construct: Bought soluble receptor; also called insulin-like growth factor-1 soluble receptor; IGF-R1

[6] = target: T1, rHuman ErbB2/Fc Chimera, CF (R&D …); assay: ECL (MSD Multi-Spot) binding, antigen spotted on plate; Fab 50 nM;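 also: blank spot per well as comparator with Hit at signal to blank ratio of 4 or more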
[7] = target: T2, rHuman EGF R/Fc Chimera, CF (R&D …); assay: as above
[8] = target: T3, Recombinant Human DLL4 (R&D Systems …); assay: as above
[9] = target: T4, rHuman HGF R/c-MET/Fc Chimera, CF (R&D …); assay: as above
[10] = target: T5, rHuman IGF-1 sR, CF (R&D Systems …); assay: as above
[11] = target: T1, rHuman ErbB2/Fc Chimera, CF (R&D …); assay: ECL (MSD Multi-Spot) binding, antigen spotted on plate; Fab 5 nM;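 also: blank spot per well as comparator with Hit at signal to blank ratio of 4 or more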
[12] = target: T2, rHuman EGF R/Fc Chimera, CF (R&D …); assay: as above
[13] = target: T3, Recombinant Human DLL4 (R&D Systems …); assay: as above
[14] = target: T4, rHuman HGF R/c-MET/Fc Chimera, CF (R&D …); assay: as above
[15] = target: T5, rHuman IGF-1 sR, CF (R&D Systems …); assay: as above
[16] = target: T6, Recombinant Human DLL4 (delta-like protein 4) (human, UniProt Q9NR61 27-524); assay: SPR, Fab on recombinant human DLL4
T6 construct: Bought (R&D Systems Cat#1506-D4/CF); also called rHuman DLL4

[17] = target: T6, Recombinant Human DLL4 (delta-like …); assay: SPR, Fab on recombinant human DLL4; standard deviation in parentheses

B1: Fab VH1-46_IGHD6-6*01_IGHJ1*01_S102A_S103P_S104F_H111F & L6_IGKJ1*01 (Fab, V domains shown)
VH: QVQLVQSGAEVKKPGASVKVSCKASGYTFTSYYMHWVRQAPGQGLEWMGIINPSGGSTSYAQKFQGRVTMTRDTSTSTVYMELSSLRSEDTAVYYCAREEYAPFSAEYFQFWGQGTLVTVSS
VL: not shown
notes: Fab made in E. coli; The heavy chain also carries the CH1 with Flag and His tags of Plasmid A, and the light chain the kappa constant region of Plasmid C
- ECL signal [1]: 2620
- ECL signal [2]: 2510
- ECL signal [3]: 29900
- ECL signal [4]: 2040
- ECL signal [5]: 1870
- ECL signal [6]: 2110
- ECL signal [7]: 2040
- ECL signal [8]: 94200
- ECL signal [9]: 1280
- ECL signal [10]: 1230
- ECL signal [11]: 1380
- ECL signal [12]: 1160
- ECL signal [13]: 150000
- ECL signal [14]: 1020
- ECL signal [15]: 917

B2: Fab VH5-51_IGHD5-18*01>3_IGHJ4*01_G100K_G104T & V3-4_IGLJ1*01 (Fab, V domains shown)
VH: EVQLVQSGAEVKKPGESLKISCKGSGYSFTSYWIGWVRQMPGKGLEWMGIIYPGDSDTRYSPSFQGQVTISADKSISTAYLQWSSLKASDTAMYYCARRKYSYTYDYFDYWGQGTLVTVSS
VL: QTVVTQEPSFSVSPGGTVTLTCGLSSGSVSTSYYPSWYQQTPGQAPRTLIYSTNTRSSGVPDRFSGSILGNKAALTITGAQADDESDYYCVLYMGSGISYVFGTGTKVTVL
notes: Modified anti-DLL4 Fab; lambda Plasmid E)
- koff [16]: 0.023 s⁻¹
- Kd [17]: 355 nM
- kon [17]: 64500 M⁻¹ s⁻¹
